Values quoted from earlier work in paper PMC6155283.
pKd: −log10 of the molar value. Values joined by “and” are separate entries in the source; they are usually repeats but may differ in a detail not shown here. Identical values can stand only once.

Target: GRα (Homo sapiens) (UniProt P04150)

pKd: 5.13 and 5.52
Substance: GRα (from UniProt P04150)
